Data: FireProtDB (doi:10.1111/j.1432-1033.1991.tb16033.x)

B1: Ribonuclease HI, P0A7Y4 (parent)
chain: MLKQVEIFTDGSCLGNPGPGGYGAILRYRGREKTFSAGYTRTTNNRMELMAAIVALEALKEHCEVILSTDSQYVRQGITQWIHNWKKRGWKTADKKPVKNVDLWQRLDAALGQHQIKWEWVKGHAGHPENERCDELARAAAMNPTLEDTGYQVEV

Variants of: B1
Conditions: Escherichia coli (strain K12); pH 5.5; 25 °C; GdnHCl; Fluorescence; Sodium acetate 20 mM; NaCl 0.1 M; reversible: yes; structure 2RN2; whole UniProt chain shown

| Variant | ddG of mutation (higher = less stable) [kcal/mol] | denaturant m value [kcal/mol/M] | denaturant midpoint (higher = more stable) [M] | unfolding free energy [kcal/mol] |
| --- | --- | --- | --- | --- |
| H127A | 0.58 | 4.98 | 1.74 | 8.68 |
| H124A | -0.48 | 5.36 | 1.82 | 9.74 |
| H62A | -0.38 | 5.19 | 1.86 | 9.64 |
| H114A | 2.63 | 4.23 | 1.57 | 6.63 |
